{"source": "the nanobody polyreactivity screen of Harvey et al. (2022)", "data": [{"assay": "yeast display, Sf9 membrane polyspecificity reagent, FACS + sequencing; frameworks hold sequencing errors", "how_it_was_run": "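Nanobodies from a synthetic yeast display library (Saccharomyces cerevisiae BJ5465), induced 36–48 hours with galactose, were stained 1 hour at 4 °C with 10% biotinylated, detergent-solubilized Sf9 membrane reagent, enriched on streptavidin microbeads, then FACS-sorted. Anti-HA (expression) and streptavidin (reagent binding) fluorescence set low and high (top ~1%) gates. Polyreactivity labels come from the gate of origin. Genes were colony-PCR amplified, MiSeq 2 × 250 sequenced and filtered by CDR length.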", "values": [{"sequence": "QVQLVESGGGLVQAGGSLRLSCAASGRIFKQYAMGWYRQAPGKERELVAAISVRGGITYYADSVKGRFTISRDNAKNTVYLQMNSLKPEDTAVYYCAKRSYRTHTYDYWGQGTQVTVSS", "polyreactivity (PSR sort gate)": "low polyreactivity"}, {"sequence": "QVQLVESGGGLVQAGGSLRLSCAASGRIFKRYAMGWYRQAPGKERELVAAISKSGGSTYYADSVKGRFTISRDNAKNTVYLQMNSLKPEDTAVYYCNADPVRSGLDYWGQGTQVTVSS", "polyreactivity (PSR sort gate)": "high polyreactivity"}, {"sequence": "QVQLVESGGGLVQAGGSLRLSCAASGRIFKRYAMGWYRQAPGKERELVAAISRGASTYYADSVKGRFTISRDNAKNTVYLQMNSLKPEDTAVYYCAAKGATPHYDYWGQGTQVTVSS", "polyreactivity (PSR sort gate)": "high polyreactivity"}, {"sequence": "QVQLVESGGGLVQAGGSLRLSCAASGRIFKRYAMGWYRQAPGKERELVASITTSGDSTYYADSVKGRFTISRDNAKNTVYLQMNSLKPEDTAVYYCAARSYRGRRYDYWGQGTQVTVSS", "polyreactivity (PSR sort gate)": "high polyreactivity"}, {"sequence": "QVQLVESGGGLVQAGGSLRLSCAASGRIFKRYVMGWYRQAPGKERELVAAISQRGGSTNYADSVKGRFTISRDNAKNTVYLQMNSLKPEDTAVYYCAAGFFSRYDYWGQGTQVTVSS", "polyreactivity (PSR sort gate)": "high polyreactivity"}, {"sequence": "QVQLVESGGGLVQAGGSLRLSCAASGRIFKSDGMGWYREAPGKERELVATISSSGDSTYYADSVKGRFTISRDNAKNTVYLQMNSLKPDDTAVYHCAKRARYKFGYWGQGTQVTVSS", "polyreactivity (PSR sort gate)": "high polyreactivity"}, {"sequence": "QVQLVESGGGLVQAGGSLRLSCAASGRIFKSYAMGWYRQAPGKERELVAAISRGGRTNYADSVKGRFTISRDNAKNTVYLQMNSLKPEVTAVYYCAARFVVQGHSSPYDYWGQGTQVTVSS", "polyreactivity (PSR sort gate)": "high polyreactivity"}, {"sequence": "QVQLVESGGGLVQAGGSLRLSCAASGRIFKSYAMGWYRQSPGKERELVAIIRSSGTTYYADSVKGRFTISRDNAKNTVYLQMNSLKPEDTAVYYCAADPYYWRQFNYDYWGQGTQVTVSS", "polyreactivity (PSR sort gate)": "high polyreactivity"}, {"sequence": "QVQLVESGGGLVQAGGSLRLSCAASGRIFKTNAMGWYRQAPGKERELVAAISRSGSRTSYADSVKGRFTISRDNAKNTVYLQMNSLKPEDTAVYYCATRGLYWKVGYWGQGTQVTVSS", "polyreactivity (PSR sort gate)": "high polyreactivity"}, {"sequence": "QVQLVESGGGLVQAGGSLRLSCAASGRIFKTYAMGWYRPAPGTERELVAGISWRGGSTYYADSVKGRFTISRDNAKNTVYLQMNSLKPEDTAVYYCAADDTYTRYDYWGQGTQVTVSS", "polyreactivity (PSR sort gate)": "high polyreactivity"}, {"sequence": "QVQLVESGGGLVQAGGSLRLSCAASGRIFKTYAMGWYRQAPGKERELVAGISWRGGSTYYADSVKGRFTISRDNAKNTVYLQMNSLKPEDTAVYYCAADDTYTRYDYWGQGTQVTVSS", "polyreactivity (PSR sort gate)": "high polyreactivity"}, {"sequence": "QVQLVESGGGLVQAGGSLRLSCAASGRIFKVYAMGWYIQAPGKERELVAVISRGGSTYYADSVKGRFTISRDNAKNTVYLQMNSLKPEDTAVYYCAARLTYTGGQGAYDYWGQGTQVTVSS", "polyreactivity (PSR sort gate)": "high polyreactivity"}, {"sequence": "QVQLVESGGGLVQAGGSLRLSCAASGRIFKVYAMGWYRQAPGKERDLVAVISRGGSTYYADSVKGRFTISRDNAKNTVYLQMKSLKPEDTAVYYCAARLTYTGGQGAYDYWGQGTQVTVSS", "polyreactivity (PSR sort gate)": "high polyreactivity"}, {"sequence": "QVQLVESGGGLVQAGGSLRLSCAASGRIFKVYAMGWYRQAPGKERELVAAITWSGVSTYADSVKGRFTISRDNAKNTVYLQMNSLKPEDTAVYYCAAYLRSPGDRQGYYYWGQGTQVTVSS", "polyreactivity (PSR sort gate)": "high polyreactivity"}, {"sequence": "QVQLVESGGGLVQAGGSLRLSCAASGRIFKWYAMGWYRQAPGKERELVAAITWRGGSTNYADSVKGRFTISRDNAKNTVYLQMNSLKPEDTAVYYCAVGTVFLTYRGYEYWGQGTQVTVSS", "polyreactivity (PSR sort gate)": "high polyreactivity"}, {"sequence": "QVQLVESGGGLVQAGGSLRLSCAASGRIFKYNAMGWSIQAPGKERELVAAISSGGSTKYADSVKGRFTISRDNAKNTVYLQMNSLKPEDTAVYYCNAVYTPYRRSFYYWGHGTQVTVSS", "polyreactivity (PSR sort gate)": "high polyreactivity"}, {"sequence": "QVQLVESGGGLVQAGGSLRLSCAASGRIFKYNAMGWYIQAPGKERELVAVITSGGSTYYADSVKGRFTISRDNEKNTVYLQMNSLKPDDTEVYYCAKKYYKVHKFDYWGQGTQVTVSS", "polyreactivity (PSR sort gate)": "low polyreactivity"}, {"sequence": "QVQLVESGGGLVQAGGSLRLSCAASGRIFKYNAMGWYRQAPGKERELVAAISSSGGSTYYADSVKGRFTISRDNAKNTVYLQMNSLKPEDTAVYYCAARYAPTLSVYRFYYWGQGTQVTVSS", "polyreactivity (PSR sort gate)": "high polyreactivity"}, {"sequence": "QVQLVESGGGLVQAGGSLRLSCAASGRIFKYYAKGWYIQAPGKERELVAAINRDGGRTYYADSVKGRFTISRDNAKNTVYLQMNSLKPEDTAVYYCAASYGYVYTTSLDYWGQGTQVTVSS", "polyreactivity (PSR sort gate)": "low polyreactivity"}, {"sequence": "QVQLVESGGGLVQAGGSLRLSCAASGRIFKYYAMGWYRQAPGKERELVAAISGTGGGTYYADSVKGRFTISRDNAKNTVYLQMNSLKPEDTAVYYCAALHQAYRGFDYWGQGTQVSVSS", "polyreactivity (PSR sort gate)": "high polyreactivity"}, {"sequence": "QVQLVESGGGLVQAGGSLRLSCAASGRIFKYYAMGWYRQAPGKERELVAAISWTGVSTYYADSVKGRFTISRDNAKNTVYLQMNSLKPEDTAVYYCNAQSYRYPKDDYWGQGTQVTVSS", "polyreactivity (PSR sort gate)": "high polyreactivity"}, {"sequence": "QVQLVESGGGLVQAGGSLRLSCAASGRIFKYYDMGWYRQAPGKERELVARISSGGGRTYYADSVKGRFKISRDNAKNTVYLQMNSLKPEDTAVYYCAADPPASYHTWYGYWGQGTQVTVSS", "polyreactivity (PSR sort gate)": "high polyreactivity"}, {"sequence": "QVQLVESGGGLVQAGGSLRLSCAASGRIFKYYVMGWYRQAPGKERELVAGISSSGVSTYYADSVKGRFTISRDNAKNTVYLQMNSLKPEDTAVYYCNAKSRTGYGRGDYWGQGTQVTVSS", "polyreactivity (PSR sort gate)": "high polyreactivity"}, {"sequence": "QVQLVESGGGLVQAGGSLRLSCAASGRIFLGNAMGWYRQAPGKDRELVAAITNGGGSTYYADSVKGRFTISRDNAKNTVYLQMNSLKPEDTAVYYCARGYKKSVQRFEYWGQGTQVTVSS", "polyreactivity (PSR sort gate)": "high polyreactivity"}, {"sequence": "QVQLVESGGGLVQAGGSLRLSCAASGRIFLGNAMGWYRQAPGKERELVAAITNGGGSTYYADSVKGRFTISRDNAKNTVYLQMNSLKPEDTAVYYCAAPVRQSSYTRYDSWGQGTQVTVSS", "polyreactivity (PSR sort gate)": "high polyreactivity"}, {"sequence": "QVQLVESGGGLVQAGGSLRLSCAASGRIFLGNAMGWYRQAPGKERELVAAITNGGGSTYYADSVKGRFTISRDTAKNTVYLQMNSLKPEDTAVYYCARGYKKSVQRFEYWGQGTQVTVSS", "polyreactivity (PSR sort gate)": "high polyreactivity"}, {"sequence": "QVQLVESGGGLVQAGGSLRLSCAASGRIFLGYTMGWYRQAPGKERELVAAISYSGGSTYYADSVKGRFTISRDYAKNTVYFQMNSLKPEDTAVYYCNKVYSIRGYWGQGTQVTVSS", "polyreactivity (PSR sort gate)": "high polyreactivity"}, {"sequence": "QVQLVESGGGLVQAGGSLRLSCAASGRIFLGYTMGWYRQAPGKERELVASMTWSGGSTYYADSVKGRFTISRDKAKNTVYVQMNSLKPEDTAVYYCIAVFWVARGRYDYWGQGTQVTVSS", "polyreactivity (PSR sort gate)": "high polyreactivity"}, {"sequence": "QVQLVESGGGLVQAGGSLRLSCAASGRIFLHNAMGWYRQAPGKERELVAAITSGGNTNYADSVKGRFTISRDNAKNTVYLQMNSLKPEDTAVYYCATVGKVHHRLVAMDYWGQGTQVTVSS", "polyreactivity (PSR sort gate)": "low polyreactivity"}, {"sequence": "QVQLVESGGGLVQAGGSLRLSCAASGRIFLLNAMGWYRQAPGKERELVARISSGRTYYADSVKGRFTISRDNAKNTVFLQMISLKPEDTAVYYCNATVSSSKFRYFYVNPYDYWGQGTQVTVSS", "polyreactivity (PSR sort gate)": "low polyreactivity"}, {"sequence": "QVQLVESGGGLVQAGGSLRLSCAASGRIFLNYDMGWYRQAPGKERELVADISISGSTDYADSVKGRFTISRDNAKNTVYLQMNSLKPEDTAVYYCATSFYVSDYYVPYEMGYWGQGTQVTVSS", "polyreactivity (PSR sort gate)": "low polyreactivity"}, {"sequence": "QVQLVESGGGLVQAGGSLRLSCAASGRIFLQNAMGWYRQAPWKERELVASISSSGGTTYYADSVKGRFTISRDNAKNTVYLQMNSLKPEDTAVYYCAADYGHYSTPMDYWGQGTQVTVSS", "polyreactivity (PSR sort gate)": "low polyreactivity"}, {"sequence": "QVQLVESGGGLVQAGGSLRLSCAASGRIFLRNAMGWYRQAPGKERELVATITSRGGSTYYADSVRGRFTISRDNAKNTVYLQMNSLKPEDTAVYYCAAKVAWGHWRGYDYWGQGTQVTVSS", "polyreactivity (PSR sort gate)": "low polyreactivity"}, {"sequence": "QVQLVESGGGLVQAGGSLRLSCAASGRIFLSNAMGWYIQAPGKEREFVAAISWRGGSTYYADSVKGRFTISRDNAKNTVYLQMNSLKPEDTAVYYCAVDVRYYYGRSYDYWGQGTQVTVSS", "polyreactivity (PSR sort gate)": "high polyreactivity"}, {"sequence": "QVQLVESGGGLVQAGGSLRLSCAASGRIFLSYAMGVYRQAPGKERELVAGITGTGGRTYYADSVKGRFTISRDNAKNTVYLLMNSLIPEDTAVSYCAAQRRDNIDPKHYYWGQGTQVTVSS", "polyreactivity (PSR sort gate)": "low polyreactivity"}, {"sequence": "QVQLVESGGGLVQAGGSLRLSCAASGRIFLSYTMGWYRQAPGKERELVAAITSGGSTYYADSVKGRFTISRDNAKNTVYLQMNSLKPEDTAVYYCATDYGYSWYDYWGQGTQVTVSS", "polyreactivity (PSR sort gate)": "low polyreactivity"}, {"sequence": "QVQLVESGGGLVQAGGSLRLSCAASGRIFLTNTMGWYRQAPGKERELVAGISRGGRTYYADSVKGRFTISRDNAKNTVYLQMNSLKPEDTAVYYCNARLRHSQYAYYYWGQGTQVTVSS", "polyreactivity (PSR sort gate)": "high polyreactivity"}, {"sequence": "QVQLVESGGGLVQAGGSLRLSCAASGRIFLVNTMGWYRQAPGKERELVATITFSVVRTYYADSVKGRFTISRDNAKNSVYLQMNSLKPEVTAVYYCAKQHLVSVPEMYYWGQGTQVTVSS", "polyreactivity (PSR sort gate)": "low polyreactivity"}, {"sequence": "QVQLVESGGGLVQAGGSLRLSCAASGRIFLVYAMGWYRQAPGKERELVAAITKRGGSTYYADSVKGRFTISRDNAKNTVYLQMNSLKPEDTAVYYCAADGYTRGYDYWGQGTQVTVSS", "polyreactivity (PSR sort gate)": "high polyreactivity"}, {"sequence": "QVQLVESGGGLVQAGGSLRLSCAASGRIFLYAMGWYRQAPGKERELVAAINRGGSTYYADSVKGRFTISRDNAKNTVYLEMNSLKPEDTAVYYCAAKRLTCRQHDYWGQGTQVTVSS", "polyreactivity (PSR sort gate)": "high polyreactivity"}, {"sequence": "QVQLVESGGGLVQAGGSLRLSCAASGRIFLYYAMGWYRQAPGKERELVAAISRRGASTYYADSVKGRFTISRDNAKNTVYLQMNSLKPEDTAVYYCATVPGKSGDYWGQGTQVTVSS", "polyreactivity (PSR sort gate)": "high polyreactivity"}, {"sequence": "QVQLVESGGGLVQAGGSLRLSCAASGRIFLYYAMGWYRQAPGKERELVAAITWSGGSTYYADSVKGRFTISRDNAKNTVYLQMNSLKPEDTAVYYCAADYLYGQTIYQVPSHYYYWGQGTQVTVSS", "polyreactivity (PSR sort gate)": "low polyreactivity"}, {"sequence": "QVQLVESGGGLVQAGGSLRLSCAASGRIFLYYNMGWYRQAPGKERELVADITWRGGSTYYADSVKGRFTISRDNAKNTVYLQMNSLKPEDTAVYYCNAVSVSSKRSDYWGQGTQVTVSS", "polyreactivity (PSR sort gate)": "low polyreactivity"}]}]}
